Measurements taken from patent publication US20250346668A1.

Experiments:
[1] = molecular target: Human CD3e/g protein (human) (UniProt P07766); assay: ELISA, coated hCD3e/g
[2] = molecular target: Cynomolgus monkey CD3e/g protein (cynomolgus monkey); assay: ELISA, coated cyno CD3e/g
[3] = molecular target: human CD3e/d protein (Sinobiological, CAT: CT038-H2508H-B) (human) (UniProt P07766); assay: ELISA, coated hCD3e/d

EC50 [1] [nM] | OD450 nm at 0.000853 nM [1] [OD450 nm] | OD450 nm at 0.0043 nM [1] [OD450 nm] | OD450 nm at 0.02 nM [1] [OD450 nm] | OD450 nm at 0.11 nM [1] [OD450 nm] | OD450 nm at 0.53 nM [1] [OD450 nm] | OD450 nm at 2.67 nM [1] [OD450 nm] | OD450 nm at 13.3 nM [1] [OD450 nm] | OD450 nm at 66.7 nM [1] [OD450 nm] | OD450 nm at 0.000853 nM [2] [OD450 nm] | OD450 nm at 0.0043 nM [2] [OD450 nm] | OD450 nm at 0.02 nM [2] [OD450 nm] | OD450 nm at 0.11 nM [2] [OD450 nm] | OD450 nm at 0.53 nM [2] [OD450 nm] | OD450 nm at 2.67 nM [2] [OD450 nm] | OD450 nm at 13.3 nM [2] [OD450 nm] | OD450 nm at 66.7 nM [2] [OD450 nm] | Substance | also measured
4.2 | 0.07 | 0.07 | 0.08 | 0.12 | 0.31 | 0.59 | 0.94 | 1.22 | 0.04 | 0.04 | 0.04 | 0.04 | 0.04 | 0.04 | 0.04 | 0.04 | HIT3a (antibody) | –
0.64 | 0.18 | 0.1 | 0.15 | 0.38 | 1.45 | 3.1 | 3.29 | 3.23 | 0.12 | 0.2 | 0.19 | 0.5 | 1.83 | 3.41 | 3.57 | 3.55 | SP34 (antibody) | EC50 [3]: 1.51 nM; Emax (OD) [3]: 2.01 OD; OD450 nm at 0.00128 nM [3]: 0.05 OD450 nm; OD450 nm at 0.0064 nM [3]: 0.06 OD450 nm; OD450 nm at 0.032 nM [3]: 0.09 OD450 nm; OD450 nm at 0.16 nM [3]: 0.23 OD450 nm; OD450 nm at 0.8 nM [3]: 0.7 OD450 nm; OD450 nm at 4 nM [3]: 1.49 OD450 nm; OD450 nm at 20 nM [3]: 2.01 OD450 nm; OD450 nm at 100 nM [3]: 1.87 OD450 nm; EC50 [2]: 0.55 nM
– | 0.177 | 0.101 | 0.08 | 0.09 | 0.14 | 0.07 | 0.1 | 0.15 | 0.0698 | 0.101 | 0.07 | 0.07 | 0.06 | 0.07 | 0.07 | 0.08 | mouse IgG (antibody) | –
2.95 | 0.07 | 0.08 | 0.09 | 0.17 | 0.47 | 0.8 | 1.21 | 1.53 | 0.04 | 0.04 | 0.04 | 0.04 | 0.04 | 0.03 | 0.25 | 0.26 | OKT3 (antibody) | –
